Data taken from patent publication US20120329716A1 (UNIVERSITY OF MANITOBA, published 2012).

Target: T1, Renin substrate 1 (Arg-Glu(EDANS)-Ile-His-Pro-Phe-His-Leu-Val-Ile-His-Thr-Lys(dabcyl)-Arg)
T1 chain: REIHPFHLVIHTKR
Assay: not given

Binder | Michaelis-Menten constant (Km) in the absence of peptide fractions [µM] | Michaelis-Menten constant (Km) in the presence of peptide fraction T4 | Michaelis-Menten constant (Km) in the presence of peptide fraction T5
Purified human recombinant renin (protein) LTLGNTTSSVILTNYMDTQYYGEIGIGTPPQTFKVVFDTGSSNVWVPSSKCSRLYTACVYHKLFDASDSSSYKHNGTELTLRYSTGTVSGFLSQDIITVGGITVTQMFGEVTEMPALPFMLAEFDGVVGMGFIEQAIGRVTPIFDNIISQGVLKEDVFSFYYNRDSENSQSLGGQIVLGGSDPQHYEGNFHYINLIKTGVWQIQMKGVSVGSSTLLCEDGCLALVDTGASYISGSTSSIEKLMEALGAKKRLFDYVVKCNEGPTLPDISFHLGGKEYTLTSADYVFQESYSSKKLCTLAIHAMDIPPPTGPTWALGATFIRKFYTEFDRRNNRIGFALAR | 3.8 | increased to 6.3 and 6.1 µM, respectively | increased to 6.3 and 6.1 µM, respectively

target: T2, Purified human recombinant renin (human, UniProt P00797 67-406); assay: cell-based or functional assay
T2 sequence (looked up): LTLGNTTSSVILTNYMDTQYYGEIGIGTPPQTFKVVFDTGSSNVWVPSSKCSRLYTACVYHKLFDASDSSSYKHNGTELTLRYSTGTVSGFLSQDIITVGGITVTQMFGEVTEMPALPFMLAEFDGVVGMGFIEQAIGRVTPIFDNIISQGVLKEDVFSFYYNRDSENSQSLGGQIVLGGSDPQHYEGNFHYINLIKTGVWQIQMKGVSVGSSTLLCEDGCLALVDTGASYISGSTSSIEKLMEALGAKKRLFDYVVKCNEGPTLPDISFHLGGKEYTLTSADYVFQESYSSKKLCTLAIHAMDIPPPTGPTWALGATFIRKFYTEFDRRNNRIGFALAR

Binder | RENIN INHIBITION % [%]
WLP [SEQ ID NO. 13] | 4.85
WMP [SEQ ID NO. 15] | 43.4
RAAP [SEQ ID NO. 14] | 15.4
RSPD [SEQ ID NO. 17] | 57.5
ADMFPF [SEQ ID NO. 23] | 76.2
YAGVSLI [SEQ ID NO. 21] | 36
HPGAG [SEQ ID NO. 16] | 21.2
WPHT [SEQ ID NO. 18] | 9.3
AHPVAIN [SEQ ID NO. 22] | 43.5
NFLAGPSD [SEQ ID NO. 25] | 6.73
YKKSVSSESDPF [SEQ ID NO. 26] | 32.4
YPRE [SEQ ID NO. 19] | 22.2
TNPFPF [SEQ ID NO. 24] | 28
SNILEAA [SEQ ID NO. 20] | 24
